According to patent US20260001928A1 (CORTERIA PHARMACEUTICALS, priority 2022, published 2026):
*1 amine or outer side, *2 acyl side, *3 side chain or, on linkers, in order; H or OH if unused. Where no end group is shown, it is not given here. Side-chain parts run from the residue outwards. [ ]: non-standard residue; d: D form. The star is where a group is joined. C20 diacid = O=C(O)CCCCCCCCCCCCCCCCCCC(=O)*; γGlu = O=C(O)[C@H](CCC(=O)[*:2])N[*:1]; NMeI = CC[C@H](C)[C@H](NC)C(=O)O; Pentanoyl = CCCCC(=O)*; AEEA = NCCOCCOCC(=O)O; Aib = CC(C)(N)C(=O)O

T1: CRF1R (corticotropin-releasing factor receptor 1), on the CRF1R-overexpression CHO-K1 cell line clone 2 (UniProt P34998 24-415, limits assumed)
T1 sequence (looked up): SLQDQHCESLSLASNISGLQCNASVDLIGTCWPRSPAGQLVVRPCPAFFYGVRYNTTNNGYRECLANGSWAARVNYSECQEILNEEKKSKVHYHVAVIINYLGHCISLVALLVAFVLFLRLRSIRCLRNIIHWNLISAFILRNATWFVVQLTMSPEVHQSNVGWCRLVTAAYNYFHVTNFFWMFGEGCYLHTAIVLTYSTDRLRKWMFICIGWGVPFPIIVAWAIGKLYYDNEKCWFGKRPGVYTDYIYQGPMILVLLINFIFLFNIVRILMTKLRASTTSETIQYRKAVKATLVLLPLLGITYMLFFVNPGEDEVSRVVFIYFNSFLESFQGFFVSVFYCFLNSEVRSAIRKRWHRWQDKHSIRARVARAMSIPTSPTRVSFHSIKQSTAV


Columns and labels:
[1] = target: Rat CRF2 a (corticotropin-releasing factor receptor 2), on the A7R5 rat aortic smooth muscle cell line (rat, UniProt P47866 20-411); experiment: cell-based or functional assay
Chain of Rat CRF2 a (corticotropin-releasing factor receptor 2), on the A7R5 rat aortic smooth muscle cell line (P47866 20-411): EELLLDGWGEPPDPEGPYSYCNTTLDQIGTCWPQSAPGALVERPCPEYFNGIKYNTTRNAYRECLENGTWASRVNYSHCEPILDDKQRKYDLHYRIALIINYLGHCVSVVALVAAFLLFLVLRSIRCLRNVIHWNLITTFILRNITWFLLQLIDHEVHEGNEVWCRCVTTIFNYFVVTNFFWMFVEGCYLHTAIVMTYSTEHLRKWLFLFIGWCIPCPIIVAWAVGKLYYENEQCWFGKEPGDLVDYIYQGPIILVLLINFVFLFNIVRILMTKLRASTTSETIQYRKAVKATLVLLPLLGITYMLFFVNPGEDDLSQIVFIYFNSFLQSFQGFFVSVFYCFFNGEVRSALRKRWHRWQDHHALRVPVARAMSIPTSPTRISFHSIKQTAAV

[2] = target: T1, CRF1R (corticotropin-releasing factor …); experiment: cell-based or functional assay

EC50 [nM] 0% HSA (cAMP, A7R5 rat aortic smooth muscle cells) [1]	EC50 [nM] (cAMP, CRF1R-overexpression CHO-K1 cells) [2]	Emax (% I) (cAMP, 100% = Sauvagine at 100 nM) [2]	Binder
0.37 nM	> 250 nM	8 % I	[NMeI]VLSLD[dV]PIKLK([AEEA-γGlu-C20 diacid])KILLEQEKQKEQREQAETN[Aib]QILAQV-NH2 (N-terminus assumed; SMILES CC[C@H](C)[C@H](NC)C(=O)N[C@H](C(=O)N[C@@H](CC(C)C)C(=O)N[C@@H](CO)C(=O)N[C@@H](CC(C)C)C(=O)N[C@@H](CC(=O)O)C(=O)N[C@@H](C(=O)N1CCC[C@H]1C(=O)N[C@H](C(=O)N[C@@H](CCCCN)C(=O)N[C@@H](CC(C)C)C(=O)N[C@@H](CCCCNC(=O)COCCOCCNC(=O)CC[C@H](NC(=O)CCCCCCCCCCCCCCCCCCC(=O)O)C(=O)O)C(=O)N[C@@H](CCCCN)C(=O)N[C@H](C(=O)N[C@@H](CC(C)C)C(=O)N[C@@H](CC(C)C)C(=O)N[C@@H](CCC(=O)O)C(=O)N[C@@H](CCC(N)=O)C(=O)N[C@@H](CCC(=O)O)C(=O)N[C@@H](CCCCN)C(=O)N[C@@H](CCC(N)=O)C(=O)N[C@@H](CCCCN)C(=O)N[C@@H](CCC(=O)O)C(=O)N[C@@H](CCC(N)=O)C(=O)N[C@@H](CCCNC(=N)N)C(=O)N[C@@H](CCC(=O)O)C(=O)N[C@@H](CCC(N)=O)C(=O)N[C@@H](C)C(=O)N[C@@H](CCC(=O)O)C(=O)N[C@H](C(=O)N[C@@H](CC(N)=O)C(=O)NC(C)(C)C(=O)N[C@@H](CCC(N)=O)C(=O)N[C@H](C(=O)N[C@@H](CC(C)C)C(=O)N[C@@H](C)C(=O)N[C@@H](CCC(N)=O)C(=O)N[C@H](C(N)=O)C(C)C)[C@@H](C)CC)[C@@H](C)O)[C@@H](C)CC)[C@@H](C)CC)C(C)C)C(C)C) [peptide of SEQ ID NO: 233]
0.05 nM	> 250 nM	15 % I	[NMeI]VLSLD[dV]PIKLK([AEEA-γGlu-C20 diacid])KILLEQEKQK[Aib]QREQAETN[Aib]QILAQV-NH2 (N-terminus assumed; SMILES CC[C@H](C)[C@H](NC)C(=O)N[C@H](C(=O)N[C@@H](CC(C)C)C(=O)N[C@@H](CO)C(=O)N[C@@H](CC(C)C)C(=O)N[C@@H](CC(=O)O)C(=O)N[C@@H](C(=O)N1CCC[C@H]1C(=O)N[C@H](C(=O)N[C@@H](CCCCN)C(=O)N[C@@H](CC(C)C)C(=O)N[C@@H](CCCCNC(=O)COCCOCCNC(=O)CC[C@H](NC(=O)CCCCCCCCCCCCCCCCCCC(=O)O)C(=O)O)C(=O)N[C@@H](CCCCN)C(=O)N[C@H](C(=O)N[C@@H](CC(C)C)C(=O)N[C@@H](CC(C)C)C(=O)N[C@@H](CCC(=O)O)C(=O)N[C@@H](CCC(N)=O)C(=O)N[C@@H](CCC(=O)O)C(=O)N[C@@H](CCCCN)C(=O)N[C@@H](CCC(N)=O)C(=O)N[C@@H](CCCCN)C(=O)NC(C)(C)C(=O)N[C@@H](CCC(N)=O)C(=O)N[C@@H](CCCNC(=N)N)C(=O)N[C@@H](CCC(=O)O)C(=O)N[C@@H](CCC(N)=O)C(=O)N[C@@H](C)C(=O)N[C@@H](CCC(=O)O)C(=O)N[C@H](C(=O)N[C@@H](CC(N)=O)C(=O)NC(C)(C)C(=O)N[C@@H](CCC(N)=O)C(=O)N[C@H](C(=O)N[C@@H](CC(C)C)C(=O)N[C@@H](C)C(=O)N[C@@H](CCC(N)=O)C(=O)N[C@H](C(N)=O)C(C)C)[C@@H](C)CC)[C@@H](C)O)[C@@H](C)CC)[C@@H](C)CC)C(C)C)C(C)C) [peptide of SEQ ID NO: 234]
0.17 nM	> 250 nM	27 % I	Pentanoyl-VLSLD[dV]PIKLK([AEEA-γGlu-C20 diacid])KILLEQEKQKKQREQAETN[Aib]QILAQV-NH2 (SMILES CCCCC(=O)N[C@H](C(=O)N[C@@H](CC(C)C)C(=O)N[C@@H](CO)C(=O)N[C@@H](CC(C)C)C(=O)N[C@@H](CC(=O)O)C(=O)N[C@@H](C(=O)N1CCC[C@H]1C(=O)N[C@H](C(=O)N[C@@H](CCCCN)C(=O)N[C@@H](CC(C)C)C(=O)N[C@@H](CCCCNC(=O)COCCOCCNC(=O)CC[C@H](NC(=O)CCCCCCCCCCCCCCCCCCC(=O)O)C(=O)O)C(=O)N[C@@H](CCCCN)C(=O)N[C@H](C(=O)N[C@@H](CC(C)C)C(=O)N[C@@H](CC(C)C)C(=O)N[C@@H](CCC(=O)O)C(=O)N[C@@H](CCC(N)=O)C(=O)N[C@@H](CCC(=O)O)C(=O)N[C@@H](CCCCN)C(=O)N[C@@H](CCC(N)=O)C(=O)N[C@@H](CCCCN)C(=O)N[C@@H](CCCCN)C(=O)N[C@@H](CCC(N)=O)C(=O)N[C@@H](CCCNC(=N)N)C(=O)N[C@@H](CCC(=O)O)C(=O)N[C@@H](CCC(N)=O)C(=O)N[C@@H](C)C(=O)N[C@@H](CCC(=O)O)C(=O)N[C@H](C(=O)N[C@@H](CC(N)=O)C(=O)NC(C)(C)C(=O)N[C@@H](CCC(N)=O)C(=O)N[C@H](C(=O)N[C@@H](CC(C)C)C(=O)N[C@@H](C)C(=O)N[C@@H](CCC(N)=O)C(=O)N[C@H](C(N)=O)C(C)C)[C@@H](C)CC)[C@@H](C)O)[C@@H](C)CC)[C@@H](C)CC)C(C)C)C(C)C) [peptide of SEQ ID NO: 235]
2.81 nM	> 250 nM	7 % I	Ac-IVLSLD[dV]PIKLK([AEEA-AEEA-γGlu-C20 diacid])KILLEQEKQKEQREQAETN[Aib]QILAQV-NH2 (SMILES CC[C@H](C)[C@H](NC(C)=O)C(=O)N[C@H](C(=O)N[C@@H](CC(C)C)C(=O)N[C@@H](CO)C(=O)N[C@@H](CC(C)C)C(=O)N[C@@H](CC(=O)O)C(=O)N[C@@H](C(=O)N1CCC[C@H]1C(=O)N[C@H](C(=O)N[C@@H](CCCCN)C(=O)N[C@@H](CC(C)C)C(=O)N[C@@H](CCCCNC(=O)COCCOCCNC(=O)COCCOCCNC(=O)CC[C@H](NC(=O)CCCCCCCCCCCCCCCCCCC(=O)O)C(=O)O)C(=O)N[C@@H](CCCCN)C(=O)N[C@H](C(=O)N[C@@H](CC(C)C)C(=O)N[C@@H](CC(C)C)C(=O)N[C@@H](CCC(=O)O)C(=O)N[C@@H](CCC(N)=O)C(=O)N[C@@H](CCC(=O)O)C(=O)N[C@@H](CCCCN)C(=O)N[C@@H](CCC(N)=O)C(=O)N[C@@H](CCCCN)C(=O)N[C@@H](CCC(=O)O)C(=O)N[C@@H](CCC(N)=O)C(=O)N[C@@H](CCCNC(=N)N)C(=O)N[C@@H](CCC(=O)O)C(=O)N[C@@H](CCC(N)=O)C(=O)N[C@@H](C)C(=O)N[C@@H](CCC(=O)O)C(=O)N[C@H](C(=O)N[C@@H](CC(N)=O)C(=O)NC(C)(C)C(=O)N[C@@H](CCC(N)=O)C(=O)N[C@H](C(=O)N[C@@H](CC(C)C)C(=O)N[C@@H](C)C(=O)N[C@@H](CCC(N)=O)C(=O)N[C@H](C(N)=O)C(C)C)[C@@H](C)CC)[C@@H](C)O)[C@@H](C)CC)[C@@H](C)CC)C(C)C)C(C)C) [peptide of SEQ ID NO: 236]
0.63 nM	> 250 nM	6 % I	[NMeI]VLSLD[dV]PIKLK([AEEA-AEEA-γGlu-C20 diacid])KILLEQEKQKEQREQAETN[Aib]QILAQV-NH2 (N-terminus assumed; SMILES CC[C@H](C)[C@H](NC)C(=O)N[C@H](C(=O)N[C@@H](CC(C)C)C(=O)N[C@@H](CO)C(=O)N[C@@H](CC(C)C)C(=O)N[C@@H](CC(=O)O)C(=O)N[C@@H](C(=O)N1CCC[C@H]1C(=O)N[C@H](C(=O)N[C@@H](CCCCN)C(=O)N[C@@H](CC(C)C)C(=O)N[C@@H](CCCCNC(=O)COCCOCCNC(=O)COCCOCCNC(=O)CC[C@H](NC(=O)CCCCCCCCCCCCCCCCCCC(=O)O)C(=O)O)C(=O)N[C@@H](CCCCN)C(=O)N[C@H](C(=O)N[C@@H](CC(C)C)C(=O)N[C@@H](CC(C)C)C(=O)N[C@@H](CCC(=O)O)C(=O)N[C@@H](CCC(N)=O)C(=O)N[C@@H](CCC(=O)O)C(=O)N[C@@H](CCCCN)C(=O)N[C@@H](CCC(N)=O)C(=O)N[C@@H](CCCCN)C(=O)N[C@@H](CCC(=O)O)C(=O)N[C@@H](CCC(N)=O)C(=O)N[C@@H](CCCNC(=N)N)C(=O)N[C@@H](CCC(=O)O)C(=O)N[C@@H](CCC(N)=O)C(=O)N[C@@H](C)C(=O)N[C@@H](CCC(=O)O)C(=O)N[C@H](C(=O)N[C@@H](CC(N)=O)C(=O)NC(C)(C)C(=O)N[C@@H](CCC(N)=O)C(=O)N[C@H](C(=O)N[C@@H](CC(C)C)C(=O)N[C@@H](C)C(=O)N[C@@H](CCC(N)=O)C(=O)N[C@H](C(N)=O)C(C)C)[C@@H](C)CC)[C@@H](C)O)[C@@H](C)CC)[C@@H](C)CC)C(C)C)C(C)C) [peptide of SEQ ID NO: 237]
